Among the data in article PMC4949581 are Km, kcat and kcat/Km values, retold here.

Substrate in series [1]: OC[C@H]1O[C@@H](O[C@H]2[C@H](O)[C@@H](CO)OC(O)[C@@H]2O)[C@H](O)[C@@H](O)[C@@H]1O
Put plainly: purified protein. The conditions noted are these: 60.0 °C.

Substrate in series [2]: O=[N+]([O-])c1ccc(O[C@@H]2O[C@H](CO)[C@@H](O)[C@H](O)[C@H]2O)cc1
Kind of series: purified protein. The conditions noted are these: 60.0 °C.

B1: TxGH116 β-glucosidase (Thermoanaerobacterium xylanolyticum LX-11) (protein)
chain: LTGCSEKININEDKISHKIDIPDSAWTIGIGEKFKNAGHPNVKYPMIDDSYVQGAPLGGFGAGTIGRTYNGGFSRWHLEIGKNKYTTVYANQFSVFQKVEGNKDGVAQVLYAGEPENGYLSSWKWDYPKESGMYYALYPNSWYTYTNKDLPVQLAVKQFSPIIPYNYKETSYPVAVFKWTAYNPTNKNVDVSIMFTWQNMIGFFGKQVNVNSGNFNKIIKDKSKDSEIVAAVMGNISNDNEEWNGEYSIGVKKVPGVDISYKAKFVTTGDGSDLWHEFSKNGILDNKDDETPTKQDGIGSAIAVNFKLQPGQTIEVPFALSWDLPIMKFGGGDKWYKMYTKYFGKNGKNSFAILKEALNNYQKWEKMIDDWQKPILSNKSKPDWYKTALFNELYYLADGGTAWENGKVGEKDKRTNNMFGLLECFDYNYYETLDVRFYGSFPLVMLWPDIEKQVMRQFADTINVQDSSEFKVGSNGAMAVKKVQGMIPHDLGSSYALPWIKINAYDWQNPNIWKDLNSKYVLLVYRDYVLTGKTDKEFLKYTWKSVKTALDKLKEMDKDNDGIPDNEGIPDQTYDTWSMKGTSAYCGSLWLAALKAAQEIGKVLKDNEAYIKYNEWYKIAQQNFEKELWNGEYYNFDTESDHKDSIMADQLAGQWYADILRLGDILPKDHVQKALKKIYEFNVMKFENGKMGAVNGMRPDGIVDESDIQAQEVWTGVTYALASFMKYRGMTEEAYNTAYGVYKMTYDKSGKGYWFRTPEAWTKDGNYRASMYMRPLSIWSMEVNYNEV
Consider B1, for which, in “purified protein [1]”, the Michaelis constant (Km) turned out to be 270 ± 18 µM, the kcat is 41.4 ± 0.7 s⁻¹ and the kcat/Km is 153000 M⁻¹ s⁻¹. For the same protein, in the series “purified protein [2]”, the Km is 180 ± 8 µM, the catalytic constant (kcat) stood at 49 ± 0.8 s⁻¹ and the kcat/Km came out at 272000 M⁻¹ s⁻¹.

The Km is the concentration of substrate that gives half-maximal velocity. Broadly, the kcat is the maximal rate divided by the concentration of active sites. The kcat/Km is the second-order rate constant that governs catalysis at low substrate concentration.
